Experimental data as given in the supplement of paper PMC11316812.
± gives the standard deviation of the averaged measurements.

Assays:
[1] = tested on: MCF7; test: percentage of EdU-negative (G0-arrested) nuclei per well, 72 h; higher = more G0 arrest; conditions: reference: sequence is the full UniProt precursor, the tested protein was the secreted form or ectodomain
[2] = tested on: hTERT-HMEC; test: as above; conditions: reference: sequence is the full UniProt precursor, the tested protein was the secreted form or ectodomain
[3] = protein concentration 0.0225 µM
[4] = protein concentration 0.0182857 µM
[5] = protein concentration 0.182857 µM
[6] = protein concentration 0.03125 µM
[7] = protein concentration 0.3125 µM
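Also: secreted proteins added to cultured cells, EdU pulse at the end, nuclei found by Hoechst imaging, EdU status from nuclear versus surrounding ring intensity ratio, PBS as neutral control.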

Sequence | percentage of EdU-negative [1, 3] | percentage of EdU-negative ([1]; protein concentration 0.225 µM) | percentage of EdU-negative [2, 3] | percentage of EdU-negative ([2]; protein concentration 0.225 µM) | further results
MLGQVVTLILLLLLKVYQGKGCQGSADHVVSISGVPLQLQPNSIQTKVDSIAWKKLLPSQNGFHHILKWENGSLPSNTSNDRFSFIVKNLSLLIKAAQQQDSGLYCLEVTSISGKVQTATFQVFVFESLLPDKVEKPRLQGQGKILDRGRCQVALSCLVSRDGNVSYAWYRGSKLIQTAGNLTYLDEEVDINGTHTYTCNVSNPVSWESHTLNLTQDCQNAHQEFRFWPFLVIIVILSALFLGTLACFCVWRRKRKEKQSETSPKEFLTIYEDVKDLKTRRNHEQEQTFPGGGSTIYSMIQSQSSAPTSQEPAYTLYSLIQPSRKSGSRKRNHSPSFNSTIYEVIGKSQPKAQNPARLSRKELENFDVYS [Q9BZW8] | 25.82 ± 0.11% | 26.1 ± 1.3% | 5.21 ± 0.31% | 6.56 ± 1.1% | –
MTLILTSLLFFGLSLGPRTRVQAENLLKPILWAEPGPVITWHNPVTIWCQGTLEAQGYRLDKEGNSMSRHILKTLESENKVKLSIPSMMWEHAGRYHCYYQSPAGWSEPSDPLELVVTAYSRPTLSALPSPVVTSGVNVTLRCASRLGLGRFTLIEEGDHRLSWTLNSHQHNHGKFQALFPMGPLTFSNRGTFRCYGYENNTPYVWSEPSDPLQLLVSGVSRKPSLLTLQGPVVTPGENLTLQCGSDVGYIRYTLYKEGADGLPQRPGRQPQAGLSQANFTLSPVSRSYGGQYRCYGAHNVSSEWSAPSDPLDILIAGQISDRPSLSVQPGPTVTSGEKVTLLCQSWDPMFTFLLTKEGAAHPPLRLRSMYGAHKYQAEFPMSPVTSAHAGTYRCYGSRSSNPYLLSHPSEPLELVVSGATETLNPAQKKSDSKTAPHLQDYTVENLIRMGVAGLVLLFLGILLFEAQHSQRSPPRCSQEANSRKDNAPFRVVEPWEQI | 28.3 ± 0.36% | 29 ± 2.8% | 4.68 ± 0.17% | 5.06 ± 0.98% | –
MPGPSPGLRRALLGLWAALGLGLFGLSAVSQEPFWADLQPRVAFVERGGSLWLNCSTNCPRPERGGLETSLRRNGTQRGLRWLARQLVDIREPETQPVCFFRCARRTLQARGLIRTFQRPDRVELMPLPPWQPVGENFTLSCRVPGAGPRASLTLTLLRGAQELIRRSFAGEPPRARGAVLTATVLARREDHGANFSCRAELDLRPHGLGLFENSSAPRELRTFSLSPDAPRLAAPRLLEVGSERPVSCTLDGLFPASEARVYLALGDQNLSPDVTLEGDAFVATATATASAEQEGARQLVCNVTLGGENRETRENVTIYSFPAPLLTLSEPSVSEGQMVTVTCAAGAQALVTLEGVPAAVPGQPAQLQLNATENDDRRSFFCDATLDVDGETLIKNRSAELRVLYAPRLDDSDCPRSWTWPEGPEQTLRCEARGNPEPSVHCARSDGGAVLALGLLGPVTRALSGTYRCKAANDQGEAVKDVTLTVEYAPALDSVGCPERITWLEGTEASLSCVAHGVPPPDVICVRSGELGAVIEGLLRVAREHAGTYRCEATNPRGSAAKNVAVTVEYGPRFEEPSCPSNWTWVEGSGRLFSCEVDGKPQPSVKCVGSGGATEGVLLPLAPPDPSPRAPRIPRVLAPGIYVCNATNRHGSVAKTVVVSAESPPEMDESTCPSHQTWLEGAEASALACAARGRPSPGVRCSREGIPWPEQQRVSREDAGTYHCVATNAHGTDSRTVTVGVEYRPVVAELAASPPGGVRPGGNFTLTCRAEAWPPAQISWRAPPGALNIGLSSNNSTLSVAGAMGSHGGEYECAATNAHGRHARRITVRVAGPWLWVAVGGAAGGAALLAAGAGLAFYVQSTACKKGEYNVQEAESSGEAVCLNGAGGGAGGAAGAEGGPEAAGGAAESPAEGEVFAIQLTSA [Q9UMF0] | – | – | – | – | percentage of EdU-negative ([1]; protein concentration 0.015 µM): 26.9 ± 2.4%; percentage of EdU-negative ([1]; protein concentration 0.15 µM): 36.9 ± 2.7%; percentage of EdU-negative ([2]; protein concentration 0.015 µM): 5.32 ± 0.067%; percentage of EdU-negative ([2]; protein concentration 0.15 µM): 90.88 ± 0.53%
MNWHLPLFLLASVTLPSICSHFNPLSLEELGSNTGIQVFNQIVKSRPHDNIVISPHGIASVLGMLQLGADGRTKKQLAMVMRYGVNGVGKILKKINKAIVSKKNKDIVTVANAVFVKNASEIEVPFVTRNKDVFQCEVRNVNFEDPASACDSINAWVKNETRDMIDNLLSPDLIDGVLTRLVLVNAVYFKGLWKSRFQPENTKKRTFVAADGKSYQVPMLAQLSVFRCGSTSAPNDLWYNFIELPYHGESISMLIALPTESSTPLSAIIPHISTKTIDSWMSIMVPKRVQVILPKFTAVAQTDLKEPLKVLGITDMFDSSKANFAKITTGSENLHVSHILQKAKIEVSEDGTKASAATTAILIARSSPPWFIVDRPFLFFIRHNPTGAVLFMGQINKP | – | – | – | – | percentage of EdU-negative [1, 4]: 26.98 ± 0.12%; percentage of EdU-negative [1, 5]: 27.93 ± 0.17%; percentage of EdU-negative [2, 4]: 4.86 ± 0.67%; percentage of EdU-negative [2, 5]: 9.81 ± 1%
MTLLPGLLFLTWLHTCLAHHDPSLRGHPHSHGTPHCYSAEELPLGQAPPHLLARGAKWGQALPVALVSSLEAASHRGRHERPSATTQCPVLRPEEVLEADTHQRSISPWRYRVDTDEDRYPQKLAFAECLCRGCIDARTGRETAALNSVRLLQSLLVLRRRPCSRDGSGLPTPGAFAFHTEFIHVPVGCTCVLPRSV [Q9P0M4] | – | – | – | – | percentage of EdU-negative [1, 6]: 26.7 ± 2.1%; percentage of EdU-negative [1, 7]: 26.1 ± 1.7%; percentage of EdU-negative [2, 6]: 5.54 ± 0.085%; percentage of EdU-negative [2, 7]: 5.3 ± 0.055%
MKMRFLGLVVCLVLWTLHSEGSGGKLTAVDPETNMNVSEIISYWGFPSEEYLVETEDGYILCLNRIPHGRKNHSDKGPKPVVFLQHGLLADSSNWVTNLANSSLGFILADAGFDVWMGNSRGNTWSRKHKTLSVSQDEFWAFSYDEMAKYDLPASINFILNKTGQEQVYYVGHSQGTTIGFIAFSQIPELAKRIKMFFALGPVASVAFCTSPMAKLGRLPDHLIKDLFGDKEFLPQSAFLKWLGTHVCTHVILKELCGNLCFLLCGFNERNLNMSRVDVYTTHSPAGTSVQNMLHWSQAVKFQKFQAFDWGSSAKNYFHYNQSYPPTYNVKDMLVPTAVWSGGHDWLADVYDVNILLTQITNLVFHESIPEWEHLDFIWGLDAPWRLYNKIINLMRKYQ | 25.12 ± 0.15% | 27.7 ± 0.37% | 4.11 ± 0.31% | 5.43 ± 0.3% | –
